Source: PMC11803495

Assays:
MBP-dPPR-nad7-Δ = target: T1, MBP-dPPR-nad7-Δ (synthetic construct (13 P-type PPR …)); experiment: EMSA
T1 chain: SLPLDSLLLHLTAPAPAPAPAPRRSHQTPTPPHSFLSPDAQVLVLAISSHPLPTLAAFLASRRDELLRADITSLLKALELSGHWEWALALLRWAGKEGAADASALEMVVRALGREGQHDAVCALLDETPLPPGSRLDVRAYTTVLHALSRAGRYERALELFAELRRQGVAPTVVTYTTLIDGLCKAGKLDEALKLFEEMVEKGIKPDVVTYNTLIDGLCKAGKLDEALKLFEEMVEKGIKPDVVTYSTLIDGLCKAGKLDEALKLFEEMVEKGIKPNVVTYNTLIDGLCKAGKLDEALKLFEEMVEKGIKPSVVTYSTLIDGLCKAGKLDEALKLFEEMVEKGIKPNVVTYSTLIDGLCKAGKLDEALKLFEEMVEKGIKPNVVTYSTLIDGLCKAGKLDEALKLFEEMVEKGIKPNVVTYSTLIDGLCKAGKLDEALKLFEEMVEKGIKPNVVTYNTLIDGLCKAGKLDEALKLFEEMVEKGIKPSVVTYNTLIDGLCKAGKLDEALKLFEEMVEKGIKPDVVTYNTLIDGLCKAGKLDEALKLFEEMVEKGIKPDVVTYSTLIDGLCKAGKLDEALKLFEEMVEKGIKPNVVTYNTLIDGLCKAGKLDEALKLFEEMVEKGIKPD

MBP-dPPR-nad7-DYW = target: T2, MBP-dPPR-nad7-DYW (synthetic construct (13 P-type PPR …)); experiment: EMSA
T2 chain: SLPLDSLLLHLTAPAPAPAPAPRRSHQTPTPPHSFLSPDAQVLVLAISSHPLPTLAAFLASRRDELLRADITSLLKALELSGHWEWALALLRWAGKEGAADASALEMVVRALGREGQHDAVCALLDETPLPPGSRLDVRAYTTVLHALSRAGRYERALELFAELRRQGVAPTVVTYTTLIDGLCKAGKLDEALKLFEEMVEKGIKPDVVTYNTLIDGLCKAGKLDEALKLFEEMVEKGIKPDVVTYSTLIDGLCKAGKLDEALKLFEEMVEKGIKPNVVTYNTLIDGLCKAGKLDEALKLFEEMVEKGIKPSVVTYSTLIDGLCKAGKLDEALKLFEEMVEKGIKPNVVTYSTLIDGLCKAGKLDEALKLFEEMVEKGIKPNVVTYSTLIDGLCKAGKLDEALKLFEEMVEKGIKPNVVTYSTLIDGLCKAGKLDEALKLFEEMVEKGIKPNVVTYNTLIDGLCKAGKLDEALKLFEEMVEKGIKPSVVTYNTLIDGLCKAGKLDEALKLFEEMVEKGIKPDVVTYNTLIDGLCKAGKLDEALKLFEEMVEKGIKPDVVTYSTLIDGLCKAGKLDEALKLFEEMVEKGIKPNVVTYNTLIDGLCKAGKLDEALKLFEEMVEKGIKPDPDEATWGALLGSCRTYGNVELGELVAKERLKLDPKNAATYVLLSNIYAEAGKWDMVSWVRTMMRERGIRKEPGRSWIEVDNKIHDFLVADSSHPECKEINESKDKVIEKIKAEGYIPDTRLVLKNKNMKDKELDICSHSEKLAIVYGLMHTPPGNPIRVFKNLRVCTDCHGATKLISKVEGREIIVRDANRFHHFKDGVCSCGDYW

B1: nad7 control (ssRNA)
RNA: CUUUUGAAUUGCGAGGUACCAUUACGAG
binding result (MBP-dPPR-nad7-Δ): no binding
binding result (MBP-dPPR-nad7-DYW): no binding
